B1: SPOP K129E (natural protein)
chain: MSRVPSPPPPAEMSSGPVAESWCYTQIKVVKFSYMWTINNFSFCREEMGEVIKSSTFSSGANDKLKWCLRVNPKGLDEESKDYLSLYLLLVSCPKSEVRAKFKFSILNAKGEETKAMESQRAYRFVQGEDWGFKKFIRRDFLLDEANGLLPDDKLTLFCEVSVVQDSVNISGQNTMNMVKVPECRLADELGGLWENSRFTDCCLCVAGQEFQAHKAILAARSPVFSAMFEHEMEESKKNRVEINDVEPEVFKEMMCFIYTGKAPNLDKMADDLLAAADKYALERLKVMCEDALCSNLSVENAAEILILADLHSADQLKTQAVDFINYHASDVLETSGWKSMVVSHPHLVAEAYRSLASAQCPFLGPPRKRLKQS
B2: SPOP K134N, full-length (natural protein)
chain: MSRVPSPPPPAEMSSGPVAESWCYTQIKVVKFSYMWTINNFSFCREEMGEVIKSSTFSSGANDKLKWCLRVNPKGLDEESKDYLSLYLLLVSCPKSEVRAKFKFSILNAKGEETKAMESQRAYRFVQGKDWGFNKFIRRDFLLDEANGLLPDDKLTLFCEVSVVQDSVNISGQNTMNMVKVPECRLADELGGLWENSRFTDCCLCVAGQEFQAHKAILAARSPVFSAMFEHEMEESKKNRVEINDVEPEVFKEMMCFIYTGKAPNLDKMADDLLAAADKYALERLKVMCEDALCSNLSVENAAEILILADLHSADQLKTQAVDFINYHASDVLETSGWKSMVVSHPHLVAEAYRSLASAQCPFLGPPRKRLKQS
B3: SPOP S96R, full-length (natural protein)
chain: MSRVPSPPPPAEMSSGPVAESWCYTQIKVVKFSYMWTINNFSFCREEMGEVIKSSTFSSGANDKLKWCLRVNPKGLDEESKDYLSLYLLLVSCPKREVRAKFKFSILNAKGEETKAMESQRAYRFVQGKDWGFKKFIRRDFLLDEANGLLPDDKLTLFCEVSVVQDSVNISGQNTMNMVKVPECRLADELGGLWENSRFTDCCLCVAGQEFQAHKAILAARSPVFSAMFEHEMEESKKNRVEINDVEPEVFKEMMCFIYTGKAPNLDKMADDLLAAADKYALERLKVMCEDALCSNLSVENAAEILILADLHSADQLKTQAVDFINYHASDVLETSGWKSMVVSHPHLVAEAYRSLASAQCPFLGPPRKRLKQS
B4: SPOP E47Q (natural protein)
chain: MSRVPSPPPPAEMSSGPVAESWCYTQIKVVKFSYMWTINNFSFCREQMGEVIKSSTFSSGANDKLKWCLRVNPKGLDEESKDYLSLYLLLVSCPKSEVRAKFKFSILNAKGEETKAMESQRAYRFVQGKDWGFKKFIRRDFLLDEANGLLPDDKLTLFCEVSVVQDSVNISGQNTMNMVKVPECRLADELGGLWENSRFTDCCLCVAGQEFQAHKAILAARSPVFSAMFEHEMEESKKNRVEINDVEPEVFKEMMCFIYTGKAPNLDKMADDLLAAADKYALERLKVMCEDALCSNLSVENAAEILILADLHSADQLKTQAVDFINYHASDVLETSGWKSMVVSHPHLVAEAYRSLASAQCPFLGPPRKRLKQS
B5: SPOP M48I (natural protein)
chain: MSRVPSPPPPAEMSSGPVAESWCYTQIKVVKFSYMWTINNFSFCREEIGEVIKSSTFSSGANDKLKWCLRVNPKGLDEESKDYLSLYLLLVSCPKSEVRAKFKFSILNAKGEETKAMESQRAYRFVQGKDWGFKKFIRRDFLLDEANGLLPDDKLTLFCEVSVVQDSVNISGQNTMNMVKVPECRLADELGGLWENSRFTDCCLCVAGQEFQAHKAILAARSPVFSAMFEHEMEESKKNRVEINDVEPEVFKEMMCFIYTGKAPNLDKMADDLLAAADKYALERLKVMCEDALCSNLSVENAAEILILADLHSADQLKTQAVDFINYHASDVLETSGWKSMVVSHPHLVAEAYRSLASAQCPFLGPPRKRLKQS
B6: SPOP R70L (natural protein)
chain: MSRVPSPPPPAEMSSGPVAESWCYTQIKVVKFSYMWTINNFSFCREEMGEVIKSSTFSSGANDKLKWCLLVNPKGLDEESKDYLSLYLLLVSCPKSEVRAKFKFSILNAKGEETKAMESQRAYRFVQGKDWGFKKFIRRDFLLDEANGLLPDDKLTLFCEVSVVQDSVNISGQNTMNMVKVPECRLADELGGLWENSRFTDCCLCVAGQEFQAHKAILAARSPVFSAMFEHEMEESKKNRVEINDVEPEVFKEMMCFIYTGKAPNLDKMADDLLAAADKYALERLKVMCEDALCSNLSVENAAEILILADLHSADQLKTQAVDFINYHASDVLETSGWKSMVVSHPHLVAEAYRSLASAQCPFLGPPRKRLKQS
B7: SPOP G128S (natural protein)
chain: MSRVPSPPPPAEMSSGPVAESWCYTQIKVVKFSYMWTINNFSFCREEMGEVIKSSTFSSGANDKLKWCLRVNPKGLDEESKDYLSLYLLLVSCPKSEVRAKFKFSILNAKGEETKAMESQRAYRFVQSKDWGFKKFIRRDFLLDEANGLLPDDKLTLFCEVSVVQDSVNISGQNTMNMVKVPECRLADELGGLWENSRFTDCCLCVAGQEFQAHKAILAARSPVFSAMFEHEMEESKKNRVEINDVEPEVFKEMMCFIYTGKAPNLDKMADDLLAAADKYALERLKVMCEDALCSNLSVENAAEILILADLHSADQLKTQAVDFINYHASDVLETSGWKSMVVSHPHLVAEAYRSLASAQCPFLGPPRKRLKQS
B8: SPOP G128D, full-length (natural protein)
chain: MSRVPSPPPPAEMSSGPVAESWCYTQIKVVKFSYMWTINNFSFCREEMGEVIKSSTFSSGANDKLKWCLRVNPKGLDEESKDYLSLYLLLVSCPKSEVRAKFKFSILNAKGEETKAMESQRAYRFVQDKDWGFKKFIRRDFLLDEANGLLPDDKLTLFCEVSVVQDSVNISGQNTMNMVKVPECRLADELGGLWENSRFTDCCLCVAGQEFQAHKAILAARSPVFSAMFEHEMEESKKNRVEINDVEPEVFKEMMCFIYTGKAPNLDKMADDLLAAADKYALERLKVMCEDALCSNLSVENAAEILILADLHSADQLKTQAVDFINYHASDVLETSGWKSMVVSHPHLVAEAYRSLASAQCPFLGPPRKRLKQS
B9: SPOP R221C (natural protein)
chain: MSRVPSPPPPAEMSSGPVAESWCYTQIKVVKFSYMWTINNFSFCREEMGEVIKSSTFSSGANDKLKWCLRVNPKGLDEESKDYLSLYLLLVSCPKSEVRAKFKFSILNAKGEETKAMESQRAYRFVQGKDWGFKKFIRRDFLLDEANGLLPDDKLTLFCEVSVVQDSVNISGQNTMNMVKVPECRLADELGGLWENSRFTDCCLCVAGQEFQAHKAILAACSPVFSAMFEHEMEESKKNRVEINDVEPEVFKEMMCFIYTGKAPNLDKMADDLLAAADKYALERLKVMCEDALCSNLSVENAAEILILADLHSADQLKTQAVDFINYHASDVLETSGWKSMVVSHPHLVAEAYRSLASAQCPFLGPPRKRLKQS

Target: the molecule itself
Test: negative-stain TEM

| Molecule | binding result |
| --- | --- |
| B1 | binds |
| B2 | binds |
| B3 | binds |
| B4 | binds |
| B5 | binds |
| B6 | binds |
| B7 | binds |
| B8 | binds |
| B9 | binds |

Target: BRD3 peptide containing the main SPOP-binding motif of BRD3
Test: fluorescence polarisation

| Molecule | fold weaker binding than the WT MATH domain [fold] | fold weaker binding than full-length WT [fold] |
| --- | --- | --- |
| SPOP MATH domain K134N (from UniProt O43791 31-161) (domain or fragment) | 4 |  |
| SPOP K134N, full-length (from UniProt O43791 1-374) (natural protein) |  | 11 |

Reference: publication PMC12262686 (bioRxiv, 2025)
